In test [1] the target is recombinant human FcRn (human α-FcRn with a 6× histidine tag on the C-terminus, co-expressed with human β2M) (human) (UniProt P55899). Nature of the test: biolayer interferometry (Octet): antibody on anti-CH1 biosensor, recombinant FcRn in solution, pH 6.0; fold change against IgG with WT Fc. In general terms: Biolayer interferometry detects binding as a change in optical thickness at a sensor tip.

The target in test [2] is TRIM21-GST (Antibodies Online catalogue #ABIN1323621) (UniProt P19474). Nature of the test: ELISA: antibody coated at 25 µg/mL, TRIM21-GST titrated, EC50 = midpoint of the 4PL fit. On the technique in general: In an ELISA, binding on a coated surface is turned into a signal by an enzyme label.
Test [3] concerns the target FcγRIIIa (UniProt P08637). Nature of the test: plate binding assay, O.D. 650 against antibody concentration (format not described in Example 4).
The target in test [4] is TRIM21-GST (Antibodies Online catalogue #ABIN1323621) (UniProt P19474). The test is described as follows: ELISA, antibody coated, TRIM21-GST titrated; reference WT.
The target in test [5] is recombinant human FcRn (human α-FcRn with a 6× histidine tag on the C-terminus, co-expressed with human β2M) (human) (UniProt P55899). The test is described as follows: biolayer interferometry (Octet): antibody on anti-CH1 biosensor, recombinant FcRn in solution, pH 6.0; reference of the fold changes.
Test [6] has as its target C1q of the low toxicity guinea pig complement used in the CDC assay (Cedarlane Laboratories Product #CL4051) (guinea pig).
Test [7] has as its target FcγRIIIa (UniProt P08637).
Test [8] has as its target FcγRIIIa (UniProt P08637). Nature of the test: ELISA: FcγRIIIA coated, antibody titrated.
The target in test [9] is recombinant human FcRn (human α-FcRn with a 6× histidine tag on the C-terminus, co-expressed with human β2M) (human) (UniProt P55899). Nature of the test: biolayer interferometry (Octet): antibody on anti-CH1 tip, FcRn in solution, pH 6.0.
For test [10], the target named is full-length, membrane-bound FcRn heterodimer (FcRn alpha and β2m) on transiently transfected Expi293 cells (UniProt P55899). The test is described as follows: cell-based competition at pH 6.0, flow cytometry: FcRn-expressing cells, dilutions of IgG against a fixed concentration of labelled Fc competitor Fc-A488. For orientation: In flow cytometry, cells or beads pass a laser one at a time.

In general, EC50 refers to the concentration at which the effect is half-maximal. Broadly, the EC50 (read off the curve) is the concentration that produces a half-maximal response. A lower EC50 (read off the curve) goes with a more potent agent. A word on the Kd: it is the equilibrium constant for the complex coming apart.

For the substance LS (Xencor) (antibody), in test [1], the kd (fold decrease*) worked out at 9.2 fold, the koff (fold decrease*) was 3.6 fold and the kon (fold increase*) came to 2.6 fold. This substance gave an EC50 in test [2] of 14500 ng/mL.

In the case of LS (antibody), in the test with FcγRIIIa [3], the EC50 (read off the curve) was 60 nM.

Take “Motavizumab with Fc variant FcMut045 (T256D_T307R_Q311V) (antibody)”: in test [1], the kd (fold decrease*) was 5.9 fold, the koff (fold decrease*) is 2.6 fold and the kon (fold increase*) was found to be 2.3 fold. In test [4], the TRIM21 binding EC50, fold of WT EC50 was less than 1.5 fold. For the same substance, the EC50 in test [2] was determined as 7730 ng/mL.

Take “Motavizumab with Fc variant FcMut183 (T256D_Q311V_A378V) (antibody)”: in test [1], the kd (fold decrease*) is 11 fold, the koff (fold decrease*) was determined as 3.2 fold and the kon (fold increase*) was 3.2 fold. The substance also gave a TRIM21 binding EC50, fold of WT EC50 in test [4] of less than 1.5 fold. The EC50 in test [2] is 7410 ng/mL.

For the substance “Motavizumab with Fc variant FcMut197 (H285N_T307Q_N315D) (antibody)”, in test [1], the kd (fold decrease*) came to 9.1 fold, the koff (fold decrease*) came to 3 fold and the kon (fold increase*) came to 2.9 fold. Further, the TRIM21 binding EC50, fold of WT EC50 in [4] is less than 1.5 fold. The substance also showed an EC50 in test [2] of 12300 ng/mL.

With “Motavizumab with Fc variant FcMut213 (H285D_T307Q_A378V) (antibody)”, in test [1], the kd (fold decrease*) was determined as 13.2 fold, the koff (fold decrease*) is 3.3 fold and the kon (fold increase*) came to 3.8 fold. Besides, the TRIM21 binding EC50, fold of WT EC50 in [4] is less than 1.5 fold. In test [2], this substance gave an EC50 of 10500 ng/mL.

Consider “Motavizumab with Fc variant FcMut215 (T307Q_Q311V_A378V) (antibody)”, for which, in test [1], the kd (fold decrease*) turned out to be 12.4 fold, the koff (fold decrease*) is 3.7 fold and the kon (fold increase*) worked out at 3.4 fold. Besides, the TRIM21 binding EC50, fold of WT EC50 in test [4] was less than 1.5 fold. In addition, the EC50 in test [2] worked out at 7800 ng/mL.

Turning to “Motavizumab with Fc variant FcMut228 (T256D_N286D_T307R_Q311V_A378V) (antibody)”, in [1], the kd (fold decrease*) was determined as 12.4 fold, the koff (fold decrease*) worked out at 4 fold and the kon (fold increase*) came to 3.2 fold. In test [4], this substance gave a TRIM21 binding EC50, fold of WT EC50 of less than 1.5 fold. Besides, the EC50 in test [2] was 10400 ng/mL.

Consider “Motavizumab with wild-type Fc (antibody)”, for which, in test [5], the kd (fold decrease*) was determined as 1 fold, the koff (fold decrease*) worked out at 1 fold and the kon (fold increase*) worked out at 1 fold. Also, the EC50 in [2] stood at 8500 ng/mL.

On to “Rituximab with Fc variant FcMut183 (T256D_Q311V_A378V) (antibody)”, for which the EC50 (CDC, CD20+ Raji cells with guinea pig complement) in [6] amounted to 0.103 ng/mL. The EC50 (ADCC reporter bioassay, CD20+ WIL2-S target cells) with FcγRIIIa [7] turned out to be 3.92 ng/mL.

In test [6], “Rituximab with Fc variant FcMut197 (H285N_T307Q_N315D) (antibody)” came in with an EC50 (CDC, CD20+ Raji cells with guinea pig complement) of 2.54 ng/mL. In the test with FcγRIIIa [7], this substance gave an EC50 (ADCC reporter bioassay, CD20+ WIL2-S target cells) of 8.3 ng/mL.

“Rituximab with Fc variant FcMut213 (H285D_T307Q_A378V) (antibody)” registered an EC50 (CDC, CD20+ Raji cells with guinea pig complement) in test [6] of 0.267 ng/mL. Moreover, the EC50 (ADCC reporter bioassay, CD20+ WIL2-S target cells) with FcγRIIIa [7] amounted to 4.01 ng/mL.

“Rituximab with Fc variant FcMut215 (T307Q_Q311V_A378V) (antibody)” gave an EC50 (CDC, CD20+ Raji cells with guinea pig complement) in test [6] of 0.141 ng/mL. The substance also had an EC50 (ADCC reporter bioassay, CD20+ WIL2-S target cells) in the test with FcγRIIIa [7] of 2.73 ng/mL.

“Rituximab with Fc variant FcMut228 (T256D_N286D_T307R_Q311V_A378V) (antibody)” gave an EC50 (CDC, CD20+ Raji cells with guinea pig complement) in test [6] of 0.22 ng/mL. The same substance registered an EC50 (ADCC reporter bioassay, CD20+ WIL2-S target cells) with FcγRIIIa [7] of 2.66 ng/mL.

“Rituximab with Fc variant FcMut229 (T256D_H285D_T307R_Q311V_A378V) (antibody)”: in [6], the EC50 (CDC, CD20+ Raji cells with guinea pig complement) was 0.14 ng/mL. Also, in the test with FcγRIIIa [7], the EC50 (ADCC reporter bioassay, CD20+ WIL2-S target cells) was determined as 3.07 ng/mL.

For WT (antibody), the EC50 (read off the curve) with FcγRIIIa [8] amounted to 3000 ng/mL; with FcγRIIIa [3], 40 nM. In addition, the Kd in test [9] worked out at 862 nM. For the same substance, in test [6], the EC50 (CDC, CD20+ Raji cells with guinea pig complement) came to 0.715 ng/mL. This substance came in with an EC50 (ADCC reporter bioassay, CD20+ WIL2-S target cells) with FcγRIIIa [7] of 6.14 ng/mL. In addition, in test [10], the IC50 (read off the curve) was found to be 300 nM.

For the substance YTE (Medimmune) (antibody), in test [1], the kd (fold decrease*) was determined as 8.5 fold, the koff (fold decrease*) stood at 3.6 fold and the kon (fold increase*) came to 2.3 fold. In [2], this substance came in with an EC50 of 10100 ng/mL.

For the substance “antibody molecule with Fc variant FcMut008 (T256D_T307R)”, in test [9], the Kd is 383 nM. In addition, the IC50 (read off the curve) in test [10] amounted to 100 nM.

With “antibody molecule with Fc variant FcMut015 (D376Q_M428L)”, the Kd in test [9] stood at 287 nM. Further, in test [10], the IC50 (read off the curve) stood at 90 nM.

For the origin of these results see patent US20250296982A1.
